According to KR20180112916A (dated 2018):

Biological target: T1, B-세포 에피토프 펩타이드 Myc362 (human)
T1 construct: Synthetic peptide of over 90% purity, coated on the ELISA plate at 5 ug/ml; also called Myc362 펩타이드
Experiment: ELISA; Myc362 peptide coated at 5 ug/ml, antibody in serial dilution, HRP anti-IgG detection

T1 sequence (peptide, as listed by the source): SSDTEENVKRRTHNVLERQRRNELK

- Kd: ~0.037 µM
B1: 2E2F12 단클론 항체 (anti-Myc362 펩타이드-특이적인 단클론 항체) (antibody, V domains shown)
VH: EVQLQESGTELVKPGASVKLSCKASGYTFTSYWMHWVKLRPGQGFEWIGEINPSSGGTNYNENFKRKATLTVDRSSSTAYMQLSSLTSEDSAVYYCTIHRSYWGQGTTLTVSS
VL: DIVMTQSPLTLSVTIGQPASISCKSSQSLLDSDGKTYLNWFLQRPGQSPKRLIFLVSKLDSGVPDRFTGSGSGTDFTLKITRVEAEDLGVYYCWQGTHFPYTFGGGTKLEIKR
notes: also called 2E2F12 클론; anti-c-Myc 단클론 항체
